Experiment: soluble on expression in E. coli; label from the status in PepcDB or PDB records

Question: Which “soluble on expression in E. coli” value does the source give for “MVLLGRGLLAVGRVAFRRPMIVRHLQYDAFVDRHIGPRRLEQQQMLDFIGYKDLDDLTGTNVPNMIKAEKALELPAPLDEYKMLKELEAIAAQNKIYRSYIGMGYYDTIVPAVISRNILQNIGWISQYTPYQAEISQGRLESLLNFQTMIAEMTGLPTTNASLLDEATASAEAVALAARTTKRNKIVVDSFCHPQNLDVIRTRSGPLGIDIEVSDSIEGYAFDDKVAAVVVQYPNTEGRIHQFDELIESAHKNKSLVIMVCDLLSLTILRSPGDLGADIAVGSAQRFGVPLGYGGPHAGFMAVAKHDAKNALGRNIPGRIIGVTKDANGNRALRLALQTREQHIRRDKATSNICTAQALLANMSAMYAVYHGPQRLTEIARGVHKSTAYLAYHLRNAGHEIVHKDYFDTLKIRLKDKAALEETKKRAEEMKMNFRYYEDGDIGVSLDETVKSEDLMDIIYTLNGATEKDVTKLREERWEVACPLIGNSPHSRSSLFLQHPVFNTHQSEQQLVRYMKRLENKDVSLVHSMIPLGSCTMKLNASAELIPITWPTLSSIHPFAPVEQAKGYSRIFGDLEKWLCEITGYDNFSLQPNSGANGEYAGLLAIRNYLIHKGEEQRNICLIPTSAHGTNPASAQMANMKVVVVDSDHHGNINYKDLAAKAEKYSNQLAAIMVTYPSTHGVFESSIRDVCDKVHEHGGQVYLDGANMNAQVGLCRPGDYGSDVSHLNLHKTFCIPHGGGGPGVGPIGVKKHLAPFLPGHSVVPVDGRKVGSVASAPYGSASILAITWAYIRMMGPVGLREASQVAILNANYMAKRLENDYRIVYKDEQGLVAHEFIMDCKPFKKHGIEVVDIAKRLMDYGFHSPTMSWPVHDCLMIEPTESEDKAEMDRLVEALLSIREEIRQVENGSLDKHLNPLKMAPHTLEKVTSDNWNMPYSRELAAFPKPWCTHKAWPTVGRVDDQYGDRNLVCTCPPIESYQ” here?
Answer: The value was “not soluble”.

Question: For “MVLRKLSTYRQKRDFEKTPEPSGEAAVASSKQRRFVIQKHDASRLHYDFRLEFDGVFKSWAVTKGPSLDPHDKRLAVEVEDHPLDYGDFEGTIPEGQYGGGTVMLWDRGTWEADDPERGFKKGDLKFTLHGEKLHGSWVLVRMRNDRDGGKRTNWLLIKHRDEYAREGEDILAEDKSVASGRAMAQIAEGKGLEHHHHHH”, which “soluble on expression in E. coli” value is on record?
Answer: The value was “not soluble”.

Question: Which “soluble on expression in E. coli” value does the source give for “MVMAAVIHKKGGPDNFVWEEVKVGSPGPGQVRLRNTAIGVNFLDTYHRAGIPHPLVVGEPPIVVGFEAAAVVEEVGPGVTDFTVGERVCTCLPPLGAYSQERLYPAEKLIKVPKDLDLDDVHLAGLMLKGMTAQYLLHQTHKVKPGDYVLIHAAAGGMGHIMVPWARHLGATVIGTVSTEEKAETARKLGCHHTINYSTQDFAEVVREITGGKGVDVVYDSIGKDTLQKSLDCLRPRGMCAAYGHASGVADPIRVVEDLGVRGSLFITRPALWHYMSNRSEIDEGSKCLFDAVKAGVLHSSVAKTFPLREAAAAHKYMGGRQTIGSIVLLPQA” here?
Answer: Its value is “soluble”.

Question: With “MVNTLEGLESTRNLILKENPMRRAAELVARLSADEVTMRAAKYELIKFNRAFQNFMLVLDENIEEILMSNDNSTRIQLKKLPEFPSFSDSFMQEYEKALLNGAEKLKASTSSEKGSIPSVSFSSSISSSSAELSDARCLICLDDVISTEKTIKCNSCRRRFHLDCASQWFKEKSVCPACNRGMLDPTEFPSL” as the sequence, how does the “soluble on expression in E. coli” value read?
Answer: The value was “not soluble”.

Question: With “MVQFLAQMPTGTSSFQAAITENEEGRLFEKYGQLLQESPPASNRPSLGIEGASGLPRPGMCPGRDCSPGSCLAALCPRPPPLYLMVPGKASGMAEAELRATLPCSCGSIPLSTPKR” as the sequence, how does the “soluble on expression in E. coli” value read?
Answer: The value was “soluble”.

Question: With “MVQKLSRPSPDFLKGLKSILQGDHPSLKQLEQDINIFYMNQRQSQSMLEERKLYVALVRKYLKSEGVTKQLASQGIKLRGLSVFGSFPTHCASKDSDLDLCVCATATGNKKQLPVIILQAIFRDMMYSKEGQNIFGENVVSGISFVQTAKVPIIRFKINDVPVDLSATFDDNPRTSLAAKYINAYCQLDDRFKILVMFLKKWMKSEGRAEDHLRIYPNSYSIILLLIHVLQWYDILPNLHQTHSDLFHRGNFKLSDLAELRHEFKFPLDENTISMHRKRPSNDLTVVQLLYLFACQYSNHVVLLNYRFNMRNGEIEALSQKDQDYQITILDAYDVRNPGRSARNALDLVKTLEALKSLLVQPHEGMFKTVMEITRNRTYERVVPPPQVLYQDYDMQFGADPYNMPLVGSVEYQQWLEQVAMHHQIQMMQGQMMQQQIVFTAPEMYYYSQQQQQPHPIFGIQQSSQFF” as the sequence, how does the “soluble on expression in E. coli” value read?
Answer: The value was “not soluble”.

Question: Which “soluble on expression in E. coli” value does the source give for “MVQNIPIYIQIHDKIKEDIEKGVWSIGDRLPSERELALKFDVSRMTLRQAIQTLADEGILERKIGSGTYVARKKVQETMTGTTSFTEITLSQNRVPSSRTVSYFVAKPSSSEMEKLQLGPEDSILRMERIRFADDIPICFEVASIPYSLVSQYGKSEITNSFYKTLEAKSGHKIGHSNQTISAVQASEQIAEYLEIKRGDAILRVRQVSYFENGLPFEYVRTQYAGSRFEFYLEK” here?
Answer: Its value is “not soluble”.

Question: For “MVRVDQNLFNEVMYLLDELSQDITVPKNVRKVAQDSKAKLSQENESLDLRCATVLSMLDEMANDPNVPAHGRTDLYTIISKLEALS”, which “soluble on expression in E. coli” value is on record?
Answer: The value was “soluble”.

Question: With “MVSAMSNIWSNWSGFVTAEPRLIASPADAGELGDLVRTAPGPVRVVGAGHSFTPLVKSQGTILSLEKLEGLVSHDPQKHQARVKAGTRLGPLMHILQGIGQGLPNMGDIDRQAIGGALGTATHGSGPTLGAYHTQLETVQIVDGLGKVRDFTRAGDQDMIHAIGVALGAFGVLSEVTLNNIATYRLRRRKWVLPIGDMLRDFEKMMTAHRSAEFYYIPFSGYAQFIASDFSTEATTTRPTDDDEGSLRTLRRLRTGLAWLPSLRRRLILGAVAKVPSEDYVQDWLNVYASDRQTKFNEMEYHLPFEEGPKALAEIIELTEKRFPEVYFPMEVRSVAPDKFWLSPFYNRPTCSIAIHHDAASDPLPFMQAAEPIFRRYGGRPHWGKMHSLKAADFKKLYPRWDDAMAVRRDIDPQNRFVSPYMAGLFGIEPSPFGIDPLEHHHHHH” as the sequence, how does the “soluble on expression in E. coli” value read?
Answer: Its value is “not soluble”.

Question: With “MVSDISNSRILRRRSSTFTDPTNLLAVHELRSRILQDPAISVKHLSDDVHRIRHEDWWLDRFLGSVNYDVDIAYAIMLECLKWRRNFEVDRISLLSLKPLLDNQLMYLHGKDLQNRHMLWIMMNKYKNGDDGFEKLFTFWIERHYMEYKGCQPLTVFIDMTGTGLKNMSFDAMKFIIHSSKYYYPNSIESILIFENPAILNASWKVIGSWLESSAASQRHDLLTFVTKLSVTHYVPKSHLLEHQGGTDTFKFTMDELAKCLPPPPPPKPSPKLLQQRMHSIDDSTNNNNVKFDEESTTKRAPSLSRRSSRGPKSRKSHIPPSLRPLIENRVNAPSDDWSSNDFVSITPRDELRLEKLDGENDLLDVVLVKNQSSDTPIMFKFKTTSPEKFRVRPSSGIVQPGTTEIIRVYLQYGESTDTRGTKKSFCFLQWNRHQQTLKASLNSSNQQATRQNSNSNVDCQKI” as the sequence, how does the “soluble on expression in E. coli” value read?
Answer: Its value is “not soluble”.

Question: Which “soluble on expression in E. coli” value does the source give for “MVSENSDATNVETTALALKILVAGGFGVGKTTMVGAVSEIRPLRTEELLSEAGQSVDDTDGVDQKVTTTVAMDFGRITIRSGLSLYLFGTPGQDRFWFLWDELSQGALGAVVLADTRRLEDCFPAVDYFEHRHIPFVVAVNCFAGARTYGAHDVSRALDLDQGTPVVLCDARDRDSGKEVLIRLVEYAGRMHTARLLDSVGLEHHHHHH” here?
Answer: Its value is “not soluble”.

Question: Which “soluble on expression in E. coli” value does the source give for “MVSLTMVPIDALLSKEVNAFIVQHKHASVAELMLRMPVFTVDSRWIAAQIEGWQKASQKLPLWASTENIIYPIRLSMEQCSSERTAHYKSTLMSGERLVDLTGGFGVDSFYLSKSFNEVIYIEQQEDLAEIAAHNFSTLNQNNIVVKTADSDEYLKDIAEKIDVIFLDPARRKEMRKVYKLSDCEPNVVALQSFYFSKADVILIKTSPMLDITEATRQLTGIKEIHVVSVDNECKEVLYLLEKNYSGKATYICAHDYKKQLQLFSFTIAAEQAVTLSYSAPLAYLYEPNPSILKAGGFNSITQKYEVFKLHASSHLYTSASEVSDFPGRTFKIKETVGYSKKDIQAAVPGGKANIQTRNFPDSVEAIRKKTGLKDGGNIFIFATTLHDLSKVLLICEKI” here?
Answer: Its value is “not soluble”.

Question: Which “soluble on expression in E. coli” value does the source give for “MVSYGSHSSEVSKVLKTPKFVLRYGNVSSKQRFALKRKINYKLRESKYQEYLNEYNTFVLYDWENSGAGSLVDSSYNLPSLWKEFITEGISKGAINDKLPTVFMKRKLTNSALGHCLGLDFLTDPSESEHEYRCMFQTVQDIPSLSQLILFNSMPNVPVRLKLHTIGININFGCKRSLISNGGDQDTEMSEAVSYIQPLLEESSRMYRNLNYWKLLKIARNNKKDEPLDQSTRIKSQVKLLLSQLATNRITSPSVTDHGGHNWLIFTRRRL” here?
Answer: Its value is “not soluble”.

Question: For “MVTPSLRLVFVKGPREGDALDYKPGSTIRVGRIVRGNEIAIKDAGISTKHLRIESDSGNWVIQDLGSSNGTLLNSNALDPETSVNLGDGDVIKLGEYTSILVNFV”, which “soluble on expression in E. coli” value is on record?
Answer: Its value is “soluble”.

Question: With “MVTSPPTSSPSQRSYSPQDWLRGYQSQPQEWDYWVEDVEGSIPPDLQGTLYRNGPGLLEIGDRPLKHPFDGDGMVTAFKFPGDGRVHFQSKFVRTQGYVEEQKAGKMIYRGVFGSQPAGGWLKTIFDLRLKNIANTNITYWGDRLLALWEGGQPHRLEPSNLATIGLDDLGGILAEGQPLSAHPRIDPASTFDGGQPCYVTFSIKSSLSSTLTLLELDPQGKLLRQKTETFPGFAFIHDFAITPHYAIFLQNNVTLNGLPYLFGLRGAGECVQFHPDKPAQIILVPRDGGEIKRIPVQAGFVFHHANAFEENGKIILDSICYNSLPQVDTDGDFRSTNFDNLDPGQLWRFTIDPAAATVEKQLMVSRCCEFPVVHPQQVGRPYRYVYMGAAHHSTGNAPLQAILKVDLESGTETLRSFAPHGFAGEPIFVPRPGGVAEDDGWLLCLIYKADLHRSELVILDAQDITAPAIATLKLKHHIPYPLHGSWAQT” as the sequence, how does the “soluble on expression in E. coli” value read?
Answer: The value was “soluble”.

Question: For “MVVDTEYYDLLGVSTTASSIEIKKAYRKKSIQEHPDKNPNDPTATERFQAISEAYQVLGDDDLRAKYDKYGRKEAIPQGGFEDAAEQFSVIFGGDAFASYIGELMLLKNLQKTEELNAEDEAEKEKENVETMEESPADGKTNGTTNAVDAALGNTNEKDDKNKARTTSGNLTVHDGNKKNEQVGAEAKKKKTKLEQFEEEQEVEKQKRVDQLSKTLIERLSILTESVYDDACKDSFKKKFEEEANLLKMESFGLDILHTIGDVYYEKAEIFLASQNLFGMGGIFHSMKAKGGVFMDTLRTVSAAIDAQNTMKELEKMKEASTNNGPLFDKDGNEQIKPTTEELAQQEQLLMGKVLSAAWHGSKYEITSTLRGVCKKVLEDDSVSKKTLIRRAEAMKLLGEVFKKTFRTKVEQEEAQIFEELVAEATKKKRHT”, which “soluble on expression in E. coli” value is on record?
Answer: Its value is “not soluble”.

Question: Which “soluble on expression in E. coli” value does the source give for “MVVFVASSRWDPSPDVIGQLCCLVSGGRSVPSTALKLGLSLSAAYRLAREYQLPVRVQTSTSASVTKSIETLWKQDVKPSDISTRLNVGTSVVYRIGIELGLWQRNPHGRRASATSRRCEYVMLRFGAMSRKDTAKVVGINPRETLDIDKGVTKLNGVGRVPCVPDEPDTELYKRLMQVVPYVDGRQAVPVEVIPQHAIDKRMSPR” here?
Answer: The value was “not soluble”.

Question: Which “soluble on expression in E. coli” value does the source give for “MVVKFTKSEALHKEALEHIVGGVNSPSRSFKAVGGGAPIAMERGKGAYFWDVDGNKYIDYLAAYGPIITGHAHPHITKAITTAAENGVLYGTPTALEVKFAKMLKEAMPALDKVRFVNSGTEAVMTTIRVARAYTGRTKIMKFAGCYHGHSDLVLVAAGSGPSTLGTPDSAGVPQSIAQEVITVPFNNVETLKEALDKWGHEVAAILVEPIVGNFGIVEPKPGFLEKVNELVHEAGALVIYDEVITAFRFMYGGAQDLLGVTPDLTALGKVIGGGLPIGAYGGKKEIMEQVAPLGPAYQAGTMAGNPASMASGIACLEVLQQEGLYEKLDELGATLEKGILEQAAKHNIDITLNRLKGALTVYFTTNTIEDYDAAQDTDGEMFGKFFKLMLQEGVNLAPSKYEAWFLTTEHTKEDIEYTIEAVGRAFAALADNK” here?
Answer: The value was “soluble”.

Question: With “MVVSIIPQFPDIKVSLALFEQVKNAKEIRSKMSELSTSFAFIDPRLVCSGEQMYSAIYKTLIEVKYNKMRTRNLNSECVLCLSPTSNISDAFLKFGIKDDSSQLICLKFHTNTDDVDKEQLRTIMTSIVKGQEIEFNDDNLSRFYDEALIRKVCFNNKFEVKTSTASPETHCTNFTFVFLLFCFYLLDL” as the sequence, how does the “soluble on expression in E. coli” value read?
Answer: Its value is “not soluble”.
